Assay results: patent US20140087995A1 (published 2014)
Numbered stars: 1 amine (or outer) side, 2 acyl side, 3 side chain; on linkers, the order of the positions; unused ones are H or OH. Bridge positions count the residues as written; N and C are the ends. Side chains are listed from the residue outwards. Ends that are not written are not given here. * marks the point of attachment. C20 diacid = O=C(O)CCCCCCCCCCCCCCCCCCC(=O)*; γGlu = O=C(O)[C@H](CCC(=O)[*:2])N[*:1]

B1: N^α1-[(4S)-4-carboxy-4-(19-carboxynonadecanoylamino)butanoyl]-[Asp14,Arg17,Pro21,Pro27,Pro37]-h-amylin (peptide)
peptide: {C20 diacid-γGlu}-KCNTATCATQRLADFLRHSSPNFGAIPSSTNVGSNTP-NH2
modifications: disulfide 2-7
SMILES: CC[C@H](C)[C@H](NC(=O)[C@H](C)NC(=O)CNC(=O)[C@H](Cc1ccccc1)NC(=O)[C@H](CC(N)=O)NC(=O)[C@@H]1CCCN1C(=O)[C@H](CO)NC(=O)[C@H](CO)NC(=O)[C@H](Cc1c[nH]cn1)NC(=O)[C@H](CCCNC(=N)N)NC(=O)[C@H](CC(C)C)NC(=O)[C@H](Cc1ccccc1)NC(=O)[C@H](CC(=O)O)NC(=O)[C@H](C)NC(=O)[C@H](CC(C)C)NC(=O)[C@H](CCCNC(=N)N)NC(=O)[C@H](CCC(N)=O)NC(=O)[C@@H](NC(=O)[C@H](C)NC(=O)[C@@H]1CSSC[C@H](NC(=O)[C@H](CCCCN)NC(=O)CC[C@H](NC(=O)CCCCCCCCCCCCCCCCCCC(=O)O)C(=O)O)C(=O)N[C@@H](CC(N)=O)C(=O)N[C@@H]([C@@H](C)O)C(=O)N[C@@H](C)C(=O)N[C@@H]([C@@H](C)O)C(=O)N1)[C@@H](C)O)C(=O)N1CCC[C@H]1C(=O)N[C@@H](CO)C(=O)N[C@@H](CO)C(=O)N[C@H](C(=O)N[C@@H](CC(N)=O)C(=O)N[C@H](C(=O)NCC(=O)N[C@@H](CO)C(=O)N[C@@H](CC(N)=O)C(=O)N[C@H](C(=O)N1CCC[C@H]1C(N)=O)[C@@H](C)O)C(C)C)[C@@H](C)O
notes: Derivative of human amylin; also called compound 10
B2: N^α1-[(4S)-4-carboxy-4-(19-carboxynonadecanoylamino)butanoyl]-[Glu14,Arg17,Pro21,Pro27,Asp35,Pro37]-h-amylin (peptide)
peptide: {C20 diacid-γGlu}-KCNTATCATQRLAEFLRHSSPNFGAIPSSTNVGSDTP-NH2
modifications: disulfide 2-7
SMILES: CC[C@H](C)[C@H](NC(=O)[C@H](C)NC(=O)CNC(=O)[C@H](Cc1ccccc1)NC(=O)[C@H](CC(N)=O)NC(=O)[C@@H]1CCCN1C(=O)[C@H](CO)NC(=O)[C@H](CO)NC(=O)[C@H](Cc1c[nH]cn1)NC(=O)[C@H](CCCNC(=N)N)NC(=O)[C@H](CC(C)C)NC(=O)[C@H](Cc1ccccc1)NC(=O)[C@H](CCC(=O)O)NC(=O)[C@H](C)NC(=O)[C@H](CC(C)C)NC(=O)[C@H](CCCNC(=N)N)NC(=O)[C@H](CCC(N)=O)NC(=O)[C@@H](NC(=O)[C@H](C)NC(=O)[C@@H]1CSSC[C@H](NC(=O)[C@H](CCCCN)NC(=O)CC[C@H](NC(=O)CCCCCCCCCCCCCCCCCCC(=O)O)C(=O)O)C(=O)N[C@@H](CC(N)=O)C(=O)N[C@@H]([C@@H](C)O)C(=O)N[C@@H](C)C(=O)N[C@@H]([C@@H](C)O)C(=O)N1)[C@@H](C)O)C(=O)N1CCC[C@H]1C(=O)N[C@@H](CO)C(=O)N[C@@H](CO)C(=O)N[C@H](C(=O)N[C@@H](CC(N)=O)C(=O)N[C@H](C(=O)NCC(=O)N[C@@H](CO)C(=O)N[C@@H](CC(=O)O)C(=O)N[C@H](C(=O)N1CCC[C@H]1C(N)=O)[C@@H](C)O)C(C)C)[C@@H](C)O
notes: Derivative of human amylin; also called compound 11
B3: N^α1-[(4S)-4-carboxy-4-(19-carboxynonadecanoylamino)butanoyl]-[Glu14,Arg17,Pro21,Pro27,Pro37]-h-amylin (peptide)
peptide: {C20 diacid-γGlu}-KCNTATCATQRLAEFLRHSSPNFGAIPSSTNVGSNTP-NH2
modifications: disulfide 2-7
notes: Derivative of human amylin; also called compound 8
B4: N^α1-[(4S)-4-carboxy-4-[[(4S)-4-carboxy-4-(19-carboxynonadecanoylamino)butanoyl]amino]butanoyl]-[Glu14,Arg17,Pro21,Pro27,Pro37]-h-amylin (peptide)
peptide: {C20 diacid-γGlu-γGlu}-KCNTATCATQRLAEFLRHSSPNFGAIPSSTNVGSNTP-NH2
modifications: disulfide 2-7
SMILES: CC[C@H](C)[C@H](NC(=O)[C@H](C)NC(=O)CNC(=O)[C@H](Cc1ccccc1)NC(=O)[C@H](CC(N)=O)NC(=O)[C@@H]1CCCN1C(=O)[C@H](CO)NC(=O)[C@H](CO)NC(=O)[C@H](Cc1c[nH]cn1)NC(=O)[C@H](CCCNC(=N)N)NC(=O)[C@H](CC(C)C)NC(=O)[C@H](Cc1ccccc1)NC(=O)[C@H](CCC(=O)O)NC(=O)[C@H](C)NC(=O)[C@H](CC(C)C)NC(=O)[C@H](CCCNC(=N)N)NC(=O)[C@H](CCC(N)=O)NC(=O)[C@@H](NC(=O)[C@H](C)NC(=O)[C@@H]1CSSC[C@H](NC(=O)[C@H](CCCCN)NC(=O)CC[C@H](NC(=O)CC[C@H](NC(=O)CCCCCCCCCCCCCCCCCCC(=O)O)C(=O)O)C(=O)O)C(=O)N[C@@H](CC(N)=O)C(=O)N[C@@H]([C@@H](C)O)C(=O)N[C@@H](C)C(=O)N[C@@H]([C@@H](C)O)C(=O)N1)[C@@H](C)O)C(=O)N1CCC[C@H]1C(=O)N[C@@H](CO)C(=O)N[C@@H](CO)C(=O)N[C@H](C(=O)N[C@@H](CC(N)=O)C(=O)N[C@H](C(=O)NCC(=O)N[C@@H](CO)C(=O)N[C@@H](CC(N)=O)C(=O)N[C@H](C(=O)N1CCC[C@H]1C(N)=O)[C@@H](C)O)C(C)C)[C@@H](C)O
notes: Derivative of human amylin; also called compound 14
B5: N^ε1-[(4S)-4-carboxy-4-[[(4S)-4-carboxy-4-(19-carboxynonadecanoylamino)butanoyl]amino]butanoyl]-[Glu14,Arg17,Pro21,Pro27,Pro37]-h-amylin (peptide)
peptide: K([γGlu-γGlu-C20 diacid])CNTATCATQRLAEFLRHSSPNFGAIPSSTNVGSNTP-NH2
modifications: disulfide 2-7 (inferred)
notes: Derivative of human amylin; also called compound 13
B6: N^α1 N^α1-[(4S)-4-carboxy-4-[[(4S)-4-carboxy-4-(19-carboxynonadecanoylamino)butanoyl]amino]butanoyl]-[Glu14,Arg17,Pro21,Pro27]-h-amylin (peptide)
peptide: {C20 diacid-γGlu-γGlu}-KCNTATCATQRLAEFLRHSSPNFGAIPSSTNVGSNTY-NH2
modifications: disulfide 2-7
SMILES: CC[C@H](C)[C@H](NC(=O)[C@H](C)NC(=O)CNC(=O)[C@H](Cc1ccccc1)NC(=O)[C@H](CC(N)=O)NC(=O)[C@@H]1CCCN1C(=O)[C@H](CO)NC(=O)[C@H](CO)NC(=O)[C@H](Cc1c[nH]cn1)NC(=O)[C@H](CCCNC(=N)N)NC(=O)[C@H](CC(C)C)NC(=O)[C@H](Cc1ccccc1)NC(=O)[C@H](CCC(=O)O)NC(=O)[C@H](C)NC(=O)[C@H](CC(C)C)NC(=O)[C@H](CCCNC(=N)N)NC(=O)[C@H](CCC(N)=O)NC(=O)[C@@H](NC(=O)[C@H](C)NC(=O)[C@@H]1CSSC[C@H](NC(=O)[C@H](CCCCN)NC(=O)CC[C@H](NC(=O)CC[C@H](NC(=O)CCCCCCCCCCCCCCCCCCC(=O)O)C(=O)O)C(=O)O)C(=O)N[C@@H](CC(N)=O)C(=O)N[C@@H]([C@@H](C)O)C(=O)N[C@@H](C)C(=O)N[C@@H]([C@@H](C)O)C(=O)N1)[C@@H](C)O)C(=O)N1CCC[C@H]1C(=O)N[C@@H](CO)C(=O)N[C@@H](CO)C(=O)N[C@H](C(=O)N[C@@H](CC(N)=O)C(=O)N[C@H](C(=O)NCC(=O)N[C@@H](CO)C(=O)N[C@@H](CC(N)=O)C(=O)N[C@H](C(=O)N[C@@H](Cc1ccc(O)cc1)C(N)=O)[C@@H](C)O)C(C)C)[C@@H](C)O
notes: Derivative of human amylin; also called compound 15

Each binder was assayed against T1, human calcitonin receptor (human, UniProt P30988 25-474) (assay: ratio IC50 human calcitonin receptor / IC50 human amylin receptor (Assays VII and V)).
T1 construct: whole, on cells; Used as membranes prepared from the transfected cells (Assay VII); also called hCTR; hCT
T1 sequence (looked up): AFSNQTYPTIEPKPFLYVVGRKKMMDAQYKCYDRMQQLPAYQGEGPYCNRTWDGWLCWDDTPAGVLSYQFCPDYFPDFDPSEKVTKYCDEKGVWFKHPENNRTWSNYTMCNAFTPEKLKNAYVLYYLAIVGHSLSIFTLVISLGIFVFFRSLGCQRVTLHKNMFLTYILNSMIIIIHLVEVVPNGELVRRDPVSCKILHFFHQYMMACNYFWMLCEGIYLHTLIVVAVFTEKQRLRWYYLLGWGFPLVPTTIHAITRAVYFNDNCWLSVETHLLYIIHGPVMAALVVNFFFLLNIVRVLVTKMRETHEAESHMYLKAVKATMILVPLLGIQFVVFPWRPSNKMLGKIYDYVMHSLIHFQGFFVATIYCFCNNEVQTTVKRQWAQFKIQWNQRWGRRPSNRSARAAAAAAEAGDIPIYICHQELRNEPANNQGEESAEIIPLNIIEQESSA
Procedure: The resulting pellet was resuspended, homogenized and centrifuged (20.000 rpm, 15 min) in a buffer containing 20 mM Na-HEPES and 0.1 mM EDTA (pH 7.4, buffer 2). The resulting pellet was resuspended in buffer 2 and protein concentration was measured (BCA protein Assay, Pierce). The homogenate was kept cold during the whole procedure. The membranes were kept at −80° C. until use. The assay was performed in a 384 well Optiplate (PerkinElmer) in a total volume of 40 ul. Membranes were mixed with SPA beads. Final concentration of membranes 35 ng/μL final and SPA beads was 0.05 mg/well. Test-compounds were dissolved in DMSO and further diluted in assay buffer (50 mM Hepes, pH 7.4, 1 mM CaCl2, 5 mM MgCl₂, 0.1% OA and 0.02% Tween20). […] The final mixture was incubated with shaking at 400 rpm for 120 min at 25° C. prior to centrifugation (1500 rpm, 10 min). Samples were analyzed on TopCounter™ (Packard). The IC₅₀ was calculated using (one site binding competition analysis) GraphPad Prism5 as a measure of receptor affinity.
Membranes were prepared in the following way; the cells were rinsed with PBS and incubated with Versene for approximately 5 min before harvesting. The cells were flushed with PBS and the cell-suspension was centrifuged for 5 min at 1000 rpm. Cells were homogenized (Ultrathurrax) in a buffer containing 20 mM Na-HEPES and 10 mM EDTA (pH 7.4) and centrifuged at 20.000 rpm for 15 min. The resulting pellet was resuspended, homogenized and centrifuged (20.000 rpm, 15 min) in a buffer containing 20 mM Na-HEPES and 0.1 mM EDTA (pH 7.4, buffer 2). The resulting pellet was resuspended in buffer 2 and protein concentration was measured (BCA protein Assay, Pierce). The homogenate was kept cold during the whole procedure. The membranes were kept at −80° C. until use. Assay was performed in a 384 well Optiplate (PerkinElmer) in a total volume of 40 ul. Membranes were mixed with SPA beads.
For B1, the “Ratio hCT/hAmylin binding” value was 1.2.
In the case of B2, the “Ratio hCT/hAmylin binding” value is reported as 1.
B3 was tested, and the “Ratio hCT/hAmylin binding” value was 0.5.
In the case of B4, the “Ratio hCT/hAmylin binding” value is reported as 2.2.
In the case of B5, the “Ratio hCT/hAmylin binding” value is reported as 1.2.
B6 was tested, and the “Ratio hCT/hAmylin binding” value was 26.
